Assay results as given in patent US20100040577.

Test system: human recombinant CXCL10 (1-77)
Sequence (chain, as listed by the source): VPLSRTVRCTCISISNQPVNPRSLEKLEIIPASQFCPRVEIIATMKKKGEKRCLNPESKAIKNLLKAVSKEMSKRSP

Substance | molecular weight difference after in vitro digestion (SELDI-TOF mass spectrometry) | cleavage of CXCL10 (SELDI-TOF mass analysis)
recombinant DPP4 | The molecular weight difference (red number) between CXCL10 (1-77) and CXCL10 (3-77) is 0.2 KDa, corresponding to a 2 amino-acid difference | 
active MMP2 |  | MMP2 did not alter the mass of CXCL10
active MMP9 |  | MMP9 cleaved 9 amino acids from CXCL10
